From patent US7709606B2, “Interacting polypeptide comprising a heptapeptide pattern and a cellular penetration domain” (Ecole Normale Superieure de Lyon, priority 2003, dated 2010)

Columns and labels:
HIV-1/Ba-L = test: antiviral test in monocyte-derived macrophages (MDM), RT activity; type: cell-based; conditions: for Percentage inhibition, Mean: MDMs, HIV-1/Ba-L
Description: (§1) These viruses were amplified in vitro with umbilical blood mononuclear cells (UBMC) activated with PHA-P. The cell-free supernatant was centrifuged at […] for 10 minutes to eliminate soluble factors, and the residue was re-suspended in cell culture medium. Virus stocks were titrated using PBMC cells activated with PHA-P and 50% tissue culture infectious doses (TCID50) were calculated using Kärber's formula.
The MDM cells were pre-treated for 30 minutes in 6 concentrations of different molecules and infected with 30000 TCID50 of the HIV-1/Ba-L strain. AZT (0.8, 4, 20, 100 and 500 nM) and indinavir (0.8, 4, 20, 100 and 500 nM) were used as the control. […] The molecules were maintained for 7 days post infection, and the cellular supernatant was harvested 7, 14 and 21 days post infection and stored at −20° C. to measure viral replication by reverse transcriptase activity (RT) assay.
(§2) HIV replication was analyzed by assaying the RT activity in the supernatants from cell cultures using the RetroSys RT kit (Innovagen). The experiments were carried out 3 times and the results are expressed as the mean of the RT activity±the standard deviation (SD).

LexNES (NES of Rev) = LexNES (NES of Rev) (Human immunodeficiency virus type 1 group M subtype B, UniProt P04618); conditions: in words; method not stated
Jurkat cells = test: intracellular entry, immunofluorescence in Jurkat cells; type: cell-based; conditions: 2 μM for one hour, analyzed 24 h later
Description: Light transmission and fluorescence images are shown for representative cells.
The immunofluorescence tests were carried out with a primary anti-FLAG antibody in a dilution of 1:500 incubated for 2 hours and a secondary antibody coupled to the Alexa Fluor 488 fluorophore (Molecular Probes) diluted 1:1000, incubated for one hour.
To confirm that SHPs do indeed enter the cell, immunofluorescence analyses were also carried out. Jurkat cells were incubated with 1 μM of SHP for 4 hours and after washing twice, the cells were cultured for 24 hours.

HIV-1-LA1 = test: antiviral test in PHA-P activated PBMC, RT activity; type: cell-based; conditions: for Percentage inhibition, Mean: HIV-1 LA1, day 7
Description: as §1
PBMC cells were pre-treated for 30 minutes by 5 concentrations of each molecule and infected with 75 TCID50 of the HIV-1-LA1 strain. AZT (1.6, 8, 40, 200 and 1000 nM) and indinavir (1.6, 8, 40, 200 and 1000 nM) were used as the control. […] The molecules were maintained throughout culture, and the cellular supernatant was harvested 7 days post infection and stored at −20° C. to measure viral replication by reverse transcriptase activity (RT) assay.
as §2
In a last step, it was examined whether SHPs were actually capable of inhibiting HIV-1 replication. This was carried out in PBMCs activated by PHA-P and in MDMs. […] The effects of different SHPs was thus tested at this time. AZT and indinavir were used as controls.

Rev = Rev (Human immunodeficiency virus type 1 group M subtype B, UniProt P04618); conditions: HeLa cells
Description: This type of indicative construct allowed an evaluation of the effect of Rev, which by causing transport towards the cytoplasm of the non spliced RNA, allowed expression of the CAT enzyme.
The CAT activity was measured using the CAT ELISA kit (Roche).
The SHPR activity was evaluated using the reporter construct pDM128 which included the coding sequence CAT and an RRE motif in an intron. Expression of Rev stimulated expression of CAT allowing an unspliced messenger to be exported to the cytoplasm.
These various mutants were tested using a transitory expression system consisting of transfecting HeLa cells of the reporter plasmid having the CAT sequence associated with the RRE in the intronic position with expression vectors for the Rev protein and the SHPR protein. […] The separation between the two values was less than 20%.
These vectors were transfected with the reporter plasmid pDM128 and the expression vector Rev as described in the above sections (and in Roisin et al, JBC (2004) 279: 9208). The quantity of CAT protein is expressed as a % of that corresponding to transfection of parental SHPR. A value of more than 100 thus indicates a negative effect on the inhibiting power of SHPR and a lower value indicates an increase in this inhibiting property.

Rev/RRE association = Rev/RRE association (Human immunodeficiency virus type 1 group M subtype B, UniProt P04618); conditions: Rev produced in bacteria, RRE RNA probe
Description: To this end, gel retard experiments were carried out with a RNA molecule corresponding to the RRE element as the probe. The Rev protein produced in bacteria binds to this RNA and induces a non denaturing polyacrylamide gel migration retardation.

Chain of LexNES (NES of Rev) (P04618 70-96): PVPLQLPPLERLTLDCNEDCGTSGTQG

B1: SHPR-142: SUMO-1-heptapeptide-Tat PTD protein against Rev; heptapeptide Phe Trp Phe Cys Gly Leu Lys (SEQ ID NO: 2) (protein)
chain: MSDQEAKPSTEDLGDKKEGEYIKLKVIGQDSSEIHFKVKMTTHLKKLKESYCQRQGVPMNSLRFLFEGQRIADNHTPKELGMEEEDVIEVYQEQTARPPNPKKEIELGGGGSFWFCGLKPGRKKRRQRRRG
modifications: left off: small tags and cut ends
inhibition of HIV replication (HIV-1/Ba-L; MDM, 1 μM): not effect
inhibition of HIV replication (HIV-1/Ba-L; MDM, 2 μM on day 14): 44±10%
anti-HIV activity, HIV-1/Ba-L replication (HIV-1/Ba-L; MDM, in words): slight inhibition of HIV replication
Percentage inhibition, Mean (HIV-1/Ba-L; Day 7, dose 62.5 (nM)): 0%
Percentage inhibition, Mean (HIV-1/Ba-L; Day 7, dose 125 (nM)): 0%
Percentage inhibition, Mean (HIV-1/Ba-L; Day 7, dose 250 (nM)): 0%
Percentage inhibition, Mean (HIV-1/Ba-L; Day 7, dose 500 (nM)): 0%
Percentage inhibition, Mean (HIV-1/Ba-L; Day 7, dose 1000 (nM)): 3%
Percentage inhibition, Mean (HIV-1/Ba-L; Day 7, dose 2000 (nM)): 35%
Percentage inhibition, Mean (HIV-1/Ba-L; Day 14, dose 62.5 (nM)): 0%
Percentage inhibition, Mean (HIV-1/Ba-L; Day 14, dose 125 (nM)): 0%
Percentage inhibition, Mean (HIV-1/Ba-L; Day 14, dose 250 (nM)): 0%
Percentage inhibition, Mean (HIV-1/Ba-L; Day 14, dose 500 (nM)): 0%
Percentage inhibition, Mean (HIV-1/Ba-L; Day 14, dose 1000 (nM)): 0%
Percentage inhibition, Mean (HIV-1/Ba-L; Day 14, dose 2000 (nM)): 44%
Percentage inhibition, Mean (HIV-1/Ba-L; Day 21, dose 62.5 (nM)): 0%
Percentage inhibition, Mean (HIV-1/Ba-L; Day 21, dose 125 (nM)): 0%
Percentage inhibition, Mean (HIV-1/Ba-L; Day 21, dose 250 (nM)): 0%
Percentage inhibition, Mean (HIV-1/Ba-L; Day 21, dose 500 (nM)): 0%
Percentage inhibition, Mean (HIV-1/Ba-L; Day 21, dose 1000 (nM)): 0%
Percentage inhibition, Mean (HIV-1/Ba-L; Day 21, dose 2000 (nM)): 18%
interaction with the NES signal of Rev (LexNES (NES of Rev)): interacts with Rev NES
immunofluorescence with antibody against FLAG (Jurkat cells): diffuse fluorescence
anti-HIV activity, replication of HIV-1-LA1 (HIV-1-LA1; PBMC activated by PHA-P, 7th day, in words): reduced replication
reduction of HIV-1 replication (HIV-1-LA1; PBMC activated with PHA-P, 2 μM): 73±6%
ED70 (HIV-1-LA1; PBMCs, HIV-1-LA1, 7th day): 2.1 µM
ED90 (HIV-1-LA1; PBMCs, HIV-1-LA1, 7th day): 4.6 µM
Percentage inhibition, Mean (HIV-1-LA1; PBMCs, Dose 31 (nM)): 0%
Percentage inhibition, Mean (HIV-1-LA1; PBMCs, Dose 62.5 (nM)): 0%
Percentage inhibition, Mean (HIV-1-LA1; PBMCs, Dose 125 (nM)): 0%
Percentage inhibition, Mean (HIV-1-LA1; PBMCs, Dose 250 (nM)): 0%
Percentage inhibition, Mean (HIV-1-LA1; PBMCs, Dose 500 (nM)): 19%
Percentage inhibition, Mean (HIV-1-LA1; PBMCs, Dose 1000 (nM)): 26%
Percentage inhibition, Mean (HIV-1-LA1; PBMCs, Dose 2000 (nM)): 73%
inhibition of the function of Rev (CAT from pDM128) (Rev): effective inhibitors of the function of Rev
effect on Rev/RRE association (gel retardation) (Rev/RRE association): did not inhibit this association
